# Data as given in patent publication US20220235139A1 (ROCHE DIAGNOSTICS OPERATIONS, published 2022).
# T1: SEQ ID NO 18: D-pY-K-N-I-H-L-E-K-K-pY-V-R-R-D
# T1 sequence (peptide, phosphotyrosine (pY) at positions 2 and 11): DYKNIHLEKKYVRRD
# T2: SEQ ID NO 19: pY-K-N-I-H-L-E-K-K-pY-V-R-R-D-S
# T2 sequence (peptide, phosphotyrosine (pY) at positions 1 and 10): YKNIHLEKKYVRRDS
# T3: SEQ ID NO: 14: E-G-G-V-D-pY-K-N-I-H-L-E-K-K-pY
# T3 sequence (peptide, phosphotyrosine (pY) at positions 6 and 15): EGGVDYKNIHLEKKY
# T4: SEQ ID NO 17: V-D-pY-K-N-I-H-L-E-K-K-pY-V-R-R
# T4 sequence (peptide, phosphotyrosine (pY) at positions 3 and 12): VDYKNIHLEKKYVRR
# T5: SEQ ID NO 21: N-I-H-L-E-K-K-pY-V-R-R-D-S-G-F
# T5 sequence (peptide, phosphotyrosine (pY) at position 8): NIHLEKKYVRRDSGF
# T6: SEQ ID NO 16: G-V-D-pY-K-N-I-H-L-E-K-K-pY-V-R
# T6 sequence (peptide, phosphotyrosine (pY) at positions 4 and 13): GVDYKNIHLEKKYVR
# T7: SEQ ID NO 20: K-N-I-H-L-E-K-K-pY-V-R-R-D-S-G
# T7 sequence (peptide, phosphotyrosine (pY) at position 9): KNIHLEKKYVRRDSG
# T8: SEQ ID NO: 13: P-E-G-G-V-D-pY-K-N-I-H-L-E-K-K
# T8 sequence (peptide, phosphotyrosine (pY) at position 7): PEGGVDYKNIHLEKK
# T9: SEQ ID NO 15: G-G-V-D-pY-K-N-I-H-L-E-K-K-pY-V
# T9 sequence (peptide, phosphotyrosine (pY) at positions 5 and 14): GGVDYKNIHLEKKYV
# T10: phosphorylated TtSlyD-CSF1R
# T10 sequence (chain, tyrosines phosphorylated in vitro with Src (1-530) kinase; positions not stated): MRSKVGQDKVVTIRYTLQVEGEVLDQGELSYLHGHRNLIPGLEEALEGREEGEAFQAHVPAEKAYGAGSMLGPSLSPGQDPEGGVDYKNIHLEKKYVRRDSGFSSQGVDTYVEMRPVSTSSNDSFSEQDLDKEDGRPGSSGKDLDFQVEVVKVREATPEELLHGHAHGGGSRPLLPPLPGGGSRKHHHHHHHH
# T11: TtSlyD-CSF1R
# T11 construct: also called 21 kDa TtSlyD-CSF1R protein
# T11 chain: T10 sequence (chain, tyrosines phosphorylated in vitro with Src (1-530) kinase; positions not stated)
# B1: antibody 1H11 (antibody, V domains shown)
# VH: QSVEESGGRLVTPGTPLTLTCTASGFSLSRYWMTWVRQAPGKGLEYIGWIDRSGNTYFADWAKGRFTGSKTSTTRDLKITSPTTEDTATYFCGRGGQNNGYDLWGPGTLVTVSS
# VL: AAVLTQTPSPVSAAVGGTVTISCQSSESVYSNNFLSWYQLKPGQRPRLLIYEASKVASGVPSRFSGSGSGTQFTLTISGVQCDDAATYYCAGGYDVSDDAFGGGTEVLVK
# notes: Rabbit full length IgG made recombinantly in FreeStyle 293-F cells; For SPR it was captured from HEK culture supernatant on goat anti-rabbit F(ab)2; no sentence ties 1H11 to them directly; also called rabbit monoclonal anti-CSF-1R antibody
# What was measured:
# [1] = molecular target: T1, SEQ ID NO 18: D-pY-K-N-I-H-L-E-K-K-pY-V-R-R-D; experiment: CelluSpots peptide array, 15-mer CSF-1R peptides in duplicate
# [2] = molecular target: T2, SEQ ID NO 19: pY-K-N-I-H-L-E-K-K-pY-V-R-R-D-S; experiment: as above
# [3] = molecular target: T3, SEQ ID NO: 14: E-G-G-V-D-pY-K-N-I-H-L-E-K-K-pY; experiment: as above
# [4] = molecular target: T4, SEQ ID NO 17: V-D-pY-K-N-I-H-L-E-K-K-pY-V-R-R; experiment: as above
# [5] = molecular target: T5, SEQ ID NO 21: N-I-H-L-E-K-K-pY-V-R-R-D-S-G-F; experiment: as above
# [6] = molecular target: T6, SEQ ID NO 16: G-V-D-pY-K-N-I-H-L-E-K-K-pY-V-R; experiment: as above
# [7] = molecular target: T7, SEQ ID NO 20: K-N-I-H-L-E-K-K-pY-V-R-R-D-S-G; experiment: as above
# [8] = molecular target: T8, SEQ ID NO: 13: P-E-G-G-V-D-pY-K-N-I-H-L-E-K-K; experiment: as above
# [9] = molecular target: T9, SEQ ID NO 15: G-G-V-D-pY-K-N-I-H-L-E-K-K-pY-V; experiment: as above
# [10] = molecular target: T10, phosphorylated TtSlyD-CSF1R; experiment: SPR (Biacore), antibody captured on anti-rabbit F(ab)2, analyte in solution, Langmuir fit, 25 C
# [11] = molecular target: T12, human CSF-1R (Colony stimulating factor 1 receptor) (human, UniProt P07333 20-972, limits assumed); experiment: Western blot of cell lysates: lane 2 NIH3T3 wt, lane 3 NIH 3T3+CSF1 K4, lane 4 NIH 3T3+CSF1 K8 [continued]
# T12 construct: also called M-CSF receptor; c-fms
# TtSlyD-CSF1R = molecular target: T11, TtSlyD-CSF1R; experiment: SPR (Biacore), captured antibody, single injection of 300 nM analyte
# Experimental: A Biacore B3000 instrument (GE Healthcare) was used to kinetically assess the rabbit antibodies for kinetics and binding specificity for TtSlyD-CSF1R. A CMS series sensor was mounted into the system and was normalized in HBS-ET buffer (10 mM HEPES pH 7.4, 150 mM NaCl, 3 mM EDTA, 0.005% w/v Tween 20) according to the manufacturer's instructions. The sample buffer was the system buffer supplemented with 1 mg/ml CMD (Carboxymethyldextran, Sigma #86524). The system operated at 25° C. 10000 RU GAR<F(ab)2> (relative units of goat anti rabbit F(ab)2/Jackson Laboratories, cat. No. 100018) were immobilized according to the manufacturer's instructions using EDC/NHS chemistry on all flow cells. The sensor was saturated with 1M ethanolamine. The binding activity of the antibodies against the analytes were kinetically tested. […] Antibodies were captured by a 2 min injection at 10 μl/min of cell culture HEK supernatant diluted 1:2 in sample buffer. The flow rate was set to 100 μl/min. The analyte was injected at different concentration steps of 0 nM, 1.1 nM, 3.7 nM, 11.1 nM, […], 100 nM and 300 nM for 2 min. The dissociation was monitored for 5 min. Kinetic signatures were monitored and evaluated using the Biaevaluation Software and a binary Langmuir Fitting model with RMAX local. […]
# T12 sequence (P07333 other isoform, or with tags, fused parts or gaps limits assumed): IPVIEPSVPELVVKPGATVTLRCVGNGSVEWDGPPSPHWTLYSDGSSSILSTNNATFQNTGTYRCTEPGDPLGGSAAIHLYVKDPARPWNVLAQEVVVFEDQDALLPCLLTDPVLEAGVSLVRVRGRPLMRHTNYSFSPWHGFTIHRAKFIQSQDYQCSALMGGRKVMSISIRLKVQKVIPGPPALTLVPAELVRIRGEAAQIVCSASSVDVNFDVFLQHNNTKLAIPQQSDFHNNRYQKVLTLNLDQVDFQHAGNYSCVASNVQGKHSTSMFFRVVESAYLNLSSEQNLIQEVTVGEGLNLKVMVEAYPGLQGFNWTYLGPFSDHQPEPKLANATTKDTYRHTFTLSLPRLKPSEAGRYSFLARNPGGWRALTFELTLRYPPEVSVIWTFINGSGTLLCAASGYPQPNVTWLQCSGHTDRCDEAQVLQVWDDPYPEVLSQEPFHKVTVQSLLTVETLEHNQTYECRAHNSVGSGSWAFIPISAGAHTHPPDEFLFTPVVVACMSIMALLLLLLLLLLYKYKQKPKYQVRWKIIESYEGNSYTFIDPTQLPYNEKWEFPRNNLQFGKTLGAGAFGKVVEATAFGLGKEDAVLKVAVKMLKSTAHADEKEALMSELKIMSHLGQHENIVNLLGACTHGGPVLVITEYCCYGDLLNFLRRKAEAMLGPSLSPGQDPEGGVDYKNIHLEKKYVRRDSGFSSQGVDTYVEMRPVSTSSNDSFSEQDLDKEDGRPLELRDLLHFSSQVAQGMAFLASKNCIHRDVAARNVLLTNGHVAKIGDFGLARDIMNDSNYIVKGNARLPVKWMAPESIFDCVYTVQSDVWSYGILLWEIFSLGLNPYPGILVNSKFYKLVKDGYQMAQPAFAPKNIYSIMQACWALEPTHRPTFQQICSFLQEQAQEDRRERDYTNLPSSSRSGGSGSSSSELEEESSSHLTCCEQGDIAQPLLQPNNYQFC
binder,measurement,setting,value
B1,% Signal,[1],49.8%
same,% Signal,[2],62.6%
same,% Signal,[3],55.3%
same,% Signal,[4],91.8%
same,% Signal,[5],45.7%
same,% Signal,[6],73.9%
same,% Signal,[7],48.9%
same,% Signal,[8],100%
same,% Signal,[9],57.1%
same,Kd,[10],0.2 nM
same,koff,[10],0.000122 s⁻¹
same,kon,[10],578000 M⁻¹ s⁻¹
same,binding result,[11],binds
same,binding result,TtSlyD-CSF1R,binds
